Changes are numbered by the printed parent chain.
B1: AMOTL2 L20: AMOTL2, L20 to alanine (protein, UniProt Q9Y2J4 1-779, looked up, variant L20A)
Angiomotin-like protein 2: MRTLEDSSGTVLHRLIQEQARYGNLTETRTLLAIQQQALRGGAGTGGTGSPQASLEILAPEDSQVLQQATRQEPQGQEHQGGENHLAENTLYRLCPQPSKGEELPTYEEAKAHSQYYAAQQAGTRPHAGDRDPRGAPGGSRRQDEALRELRHGHVRSLSERLLQLSLERNGARAPSHMSSSHSFPQLARNQQGPPLRGPPAEGPESRGPPPQYPHVVLAHETTTAVTDPRYRARGSPHFQHAEVRILQAQVPPVFLQQQQQYQYLQQSQEHPPPPHPAALGHGPLSSLSPPAVEGPVSAQASSATSGSAHLAQMEAVLRENARLQRDNERLQRELESSAEKAGRIEKLESEIQRLSEAHESLTRASSKREALEKTMRNKMDSEMRRLQDFNRDLRERLESANRRLASKTQEAQAGSQDMVAKLLAQSYEQQQEQEKLEREMALLRGAIEDQRRRAELLEQALGNAQGRAARAEEELRKKQAYVEKVERLQQALGQLQAACEKREQLELRLRTRLEQELKALRAQQRQAGAPGGSSGSGGSPELSALRLSEQLREKEEQILALEADMTKWEQKYLEERAMRQFAMDAAATAAAQRDTTLIRHSPQPSPSSSFNEGLLTGGHRHQEMESRLKVLHAQILEKDAVIKVLQQRSRRDPGKAIQGSLRPAKSVPSVFAAAAAGTQGWQGLSSSERQTADAPARLTTDRAPTEEPVVTAPPAAHAKHGSRDGSTQTEGPPDSTSTCLPPEPDSLLGCSSSQRAASLDSVATSRVQDLSDMVEILI
B2: AMOTL2 R29: AMOTL2, R29 to alanine (protein, UniProt Q9Y2J4 1-779, looked up, variant R29A)
Angiomotin-like protein 2: B1 Angiomotin-like protein 2 with A20L, R29A
B3: AMOTL2 Q37: AMOTL2, Q37 to alanine (protein, UniProt Q9Y2J4 1-779, looked up, variant Q37A)
Angiomotin-like protein 2: B1 Angiomotin-like protein 2 with A20L, Q37A
B4: AMOTL2 T28: AMOTL2, T28 to alanine (protein, UniProt Q9Y2J4 1-779, looked up, variant T28A)
Angiomotin-like protein 2: B1 Angiomotin-like protein 2 with A20L, T28A
B5: AMOTL2 T30: AMOTL2, T30 to alanine (protein, UniProt Q9Y2J4 1-779, looked up, variant T30A)
Angiomotin-like protein 2: B1 Angiomotin-like protein 2 with A20L, T30A
B6: AMOTL2 Q36: AMOTL2, Q36 to alanine (protein, UniProt Q9Y2J4 1-779, looked up, variant Q36A)
Angiomotin-like protein 2: B1 Angiomotin-like protein 2 with A20L, Q36A
B7: AMOTL2 R21: AMOTL2, R21 to alanine (protein, UniProt Q9Y2J4 1-779, looked up, variant R21A)
Angiomotin-like protein 2: B1 Angiomotin-like protein 2 with A20L, R21A
B8: AMOTL2 I34: AMOTL2, I34 to alanine (protein, UniProt Q9Y2J4 1-779, looked up, variant I34A)
Angiomotin-like protein 2: B1 Angiomotin-like protein 2 with A20L, I34A
B9: AMOTL2 E27: AMOTL2, E27 to alanine (protein, UniProt Q9Y2J4 1-779, looked up, variant E27A)
Angiomotin-like protein 2: B1 Angiomotin-like protein 2 with A20L, E27A
B10: AMOTL2 V11: AMOTL2, V11 to alanine (protein, UniProt Q9Y2J4 1-779, looked up, variant V11A)
Angiomotin-like protein 2: B1 Angiomotin-like protein 2 with V11A, A20L
B11: AMOTL2 L31: AMOTL2, L31 to alanine (protein, UniProt Q9Y2J4 1-779, looked up, variant L31A)
Angiomotin-like protein 2: B1 Angiomotin-like protein 2 with A20L, L31A
B12: AMOTL2 H13: AMOTL2, H13 to alanine (protein, UniProt Q9Y2J4 1-779, looked up, variant H13A)
Angiomotin-like protein 2: B1 Angiomotin-like protein 2 with H13A, A20L
B13: AMOTL2 L12: AMOTL2, L12 to alanine (protein, UniProt Q9Y2J4 1-779, looked up, variant L12A)
Angiomotin-like protein 2: B1 Angiomotin-like protein 2 with L12A, A20L
B14: AMOTL2 Q35: AMOTL2, Q35 to alanine (protein, UniProt Q9Y2J4 1-779, looked up, variant Q35A)
Angiomotin-like protein 2: B1 Angiomotin-like protein 2 with A20L, Q35A
B15: AMOTL2 T10: AMOTL2, T10 to alanine (protein, UniProt Q9Y2J4 1-779, looked up, variant T10A)
Angiomotin-like protein 2: B1 Angiomotin-like protein 2 with T10A, A20L
B16: AMOTL2 L32: AMOTL2, L32 to alanine (protein, UniProt Q9Y2J4 1-779, looked up, variant L32A)
Angiomotin-like protein 2: B1 Angiomotin-like protein 2 with A20L, L32A
B17: AMOTL2 Y22: AMOTL2, Y22 to alanine (protein, UniProt Q9Y2J4 1-779, looked up, variant Y22A)
Angiomotin-like protein 2: B1 Angiomotin-like protein 2 with A20L, Y22A
B18: EYA3 T88: EYA3, T88 to alanine (protein, UniProt Q99504 1-573, looked up, variant T88A)
Protein phosphatase EYA3: MEEEQDLPEQPVKKAKMQESGEQTISQVSNPDVSDQKPETSSLASNLPMSEEIMTCTDYIPRSSNDYTSQMYSAKPYAHILSVPVSEAAYPGQTQYQTLQQTQPYAVYPQATQTYGLPPFGALWPGMKPESGLIQTPSPSQHSVLTCTTGLTTSQPSPAHYSYPIQASSTNASLISTSSTIANIPAAAVASISNQDYPTYTILGQNQYQACYPSSSFGVTGQTNSDAESTTLAATTYQSEKPSVMAPAPAAQRLSSGDPSTSPSLSQTTPSKDTDDQSRKNMTSKNRGKRKADATSSQDSELERVFLWDLDETIIIFHSLLTGSYAQKYGKDPTVVIGSGLTMEEMIFEVADTHLFFNDLEECDQVHVEDVASDDNGQDLSNYSFSTDGFSGSGGSGSHGSSVGVQGGVDWMRKLAFRYRKVREIYDKHKSNVGGLLSPQRKEALQRLRAEIEVLTDSWLGTALKSLLLIQSRKNCVNVLITTTQLVPALAKVLLYGLGEIFPIENIYSATKIGKESCFERIVSRFGKKVTYVVIGDGRDEEIAAKQHNMPFWRITNHGDLVSLHQALELDFL
B19: EYA3 K75: EYA3, K75 to alanine (protein, UniProt Q99504 1-573, looked up, variant K75A)
Protein phosphatase EYA3: B18 Protein phosphatase EYA3 with K75A, A88T
B20: EYA3 H79: EYA3, H79 to alanine (protein, UniProt Q99504 1-573, looked up, variant H79A)
Protein phosphatase EYA3: B18 Protein phosphatase EYA3 with H79A, A88T
B21: EYA3 Y90: EYA3, Y90 to alanine (protein, UniProt Q99504 1-573, looked up, variant Y90A)
Protein phosphatase EYA3: B18 Protein phosphatase EYA3 with A88T, Y90A
B22: EYA3 L81: EYA3, L81 to alanine (protein, UniProt Q99504 1-573, looked up, variant L81A)
Protein phosphatase EYA3: B18 Protein phosphatase EYA3 with L81A, A88T
B23: EYA3 Y77: EYA3, Y77 to alanine (protein, UniProt Q99504 1-573, looked up, variant Y77A)
Protein phosphatase EYA3: B18 Protein phosphatase EYA3 with Y77A, A88T
B24: EYA3 I80: EYA3, I80 to alanine (protein, UniProt Q99504 1-573, looked up, variant I80A)
Protein phosphatase EYA3: B18 Protein phosphatase EYA3 with I80A, A88T
B25: EYA3 P91: EYA3, P91 to alanine (protein, UniProt Q99504 1-573, looked up, variant P91A)
Protein phosphatase EYA3: B18 Protein phosphatase EYA3 with A88T, P91A
B26: ZDS1 S864: ZDS1, S864 to alanine (protein, UniProt P50111 1-915, looked up, variant S864A)
Protein ZDS1: MSNRDNESMLRTTSSDKAIASQRDKRKSEVLIAAQSLDNEIRSVKNLKRLSIGSMDLLIDPELDIKFGGESSGRRSWSGTTSSSASMPSDTTTVNNTRYSDPTPLENLHGRGNSGIESSNKTKQGNYLGIKKGVHSPSRKLNANVLKKNLLWVPANQHPNVKPDNFLELVQDTLQNIQLSDNGEDNDGNSNENNDIEDNGEDKESQSYENKENNTINLNRGLSRHGNASLIRRPSTLRRSYTEFDDNEDDDNKGDSASETVNKVEERISKIKERPVSLRDITEELTKISNSAGLTDNDAITLARTLSMAGSYSDKKDQPQPEGHYDEGDIGFSTSQANTLDDGEFASNMPINNTMTWPERSSLRRSRFNTYRIRSQEQEKEVEQSVDEMKNDDEERLKLTKNTIKVEIDPHKSPFRQQDEDSENMSSPGSIGDFQDIYNHYRQSSGEWEQEMGIEKEAEEVPVKVRNDTVEQDLELREGTTDMVKPSATDDNKETKRHRRRNGWTWLNNKMSREDDNEENQGDDENEENVDSQRMELDNSKKHYISLFNGGEKTEVSNKEEMNNSSTSTATSQTRQKIEKTFANLFRRKPHHKHDASSSPSSSPSSSPSIPNNDAVHVRVRKSKKLGNKSGREPVEPIVLRNRPRPHRHHHSRHGSQKISVKTLKDSQPQQQIPLQPQLEGAIEIEKKEESDSESLPQLQPAVSVSSTKSNSRDREEEEAKKKNKKRSNTTEISNQQHSKHVQKENTDEQKAQLQAPAQEQVQTSVPVQASAPVQNSAPVQTSAPVEASAQTQAPAAPPLKHTSILPPRKLTFADVKKPDKPNSPVQFTDSAFGFPLPLLTVSTVIMFDHRLPINVERAIYRLAHLKLSNSKRGLREQVLLSNFMYAYLNLVNHTLYMEQVAHDKEQQQQQQQQP
B27: ZDS1 S869: ZDS1, S869 to alanine (protein, UniProt P50111 1-915, looked up, variant S869A)
Protein ZDS1: B26 Protein ZDS1 with A864S, S869A
B28: ZDS1 L868: ZDS1, L868 to alanine (protein, UniProt P50111 1-915, looked up, variant L868A)
Protein ZDS1: B26 Protein ZDS1 with A864S, L868A
B29: ZDS1 H865: ZDS1, H865 to alanine (protein, UniProt P50111 1-915, looked up, variant H865A)
Protein ZDS1: B26 Protein ZDS1 with A864S, H865A
B30: ZDS1 L866: ZDS1, L866 to alanine (protein, UniProt P50111 1-915, looked up, variant L866A)
Protein ZDS1: B26 Protein ZDS1 with A864S, L866A
B31: ZDS1 K867: ZDS1, K867 to alanine (protein, UniProt P50111 1-915, looked up, variant K867A)
Protein ZDS1: B26 Protein ZDS1 with A864S, K867A

What follows are molecules tested on PP2A-B55α (assay: Single alanine mutational scan, YFP-tagged interactors immunoprecipitated from HeLa cells, Western blot). Conditions: single alanine mutant of YFP-tagged AMOTL2.
Type: binding, human
In the case of B1, the Experimental % binding is reported as 98%.
In the case of B2, the Experimental % binding is reported as 4%.
Molecule B3 has an Experimental % binding of 44%.
B4 showed an Experimental % binding of 4%.
B5 gave an Experimental % binding of 85%.
Work on B6 yielded an Experimental % binding of 76%.
B7 was tested, and the Experimental % binding was 60%.
Work on B8 yielded an Experimental % binding of 15%.
For B9, the Experimental % binding was 165%.
For B10, the Experimental % binding was 114%.
With B11 the Experimental % binding was 115%.
Work on B12 yielded an Experimental % binding of 110%.
In the case of B13, the Experimental % binding is reported as 88%.
B14 gave an Experimental % binding of 61%.
B15 showed an Experimental % binding of 104%.
In the case of B16, the Experimental % binding is reported as 118%.
B17 showed an Experimental % binding of 25%.

Same assay, conditions: single alanine mutant of YFP-tagged EYA3
For B18, the Experimental % binding was 1%.
For B19, the Experimental % binding was 45%.
In the case of B20, the Experimental % binding is reported as 10%.
B21 gave an Experimental % binding of 5%.
Molecule B22 has an Experimental % binding of 20%.
B23 showed an Experimental % binding of 20%.
B24 showed an Experimental % binding of 5%.
B25 was tested, and the Experimental % binding was 5%.

Same assay, conditions: single alanine mutant of YFP-tagged ZDS1
With B26 the Experimental % binding was 113%.
Work on B27 yielded an Experimental % binding of 77%.
Molecule B28 has an Experimental % binding of 56%.
For B29, the Experimental % binding was 75%.
In the case of B30, the Experimental % binding is reported as 52%.
B31 showed an Experimental % binding of 15%.

Source: publication PMC11446282
